# Tests used:
# human airway epithelia [1] = assay: MD-2 mRNA expression in human airway epithelia after stimuli (real time PCR); type: cell-based; settings: 18–24 hr stimulation
# Description: Fold increase in MD-2 mRNA expression was quantified using real time PCR. FIG. 10 represents the results from three independent experiments on three different epithelial preparations. * indicates p<0.05.
# Real-time PCR was employed to detect human β-defensin-2 and MD-2 and to quantify changes in expression. Real-time quantitative PCR was performed using a sequence detector (ABI PRISM 7700, Applied Biosystems, Foster City, Calif.) and Taqman technology (Roche Molecular Diagnostic Systems) following the manufacturer's protocols (Bustin, 2000). The primers and probes were designed using the Primer Express program (Applied Biosystems). For MD-2, the primers were-forward5′-[…]-3′ (SEQ ID NO:11), reverse 5′-GCATTTCTTCTGGGCTCCC-3′ (SEQ ID NO:12), and probe 5′-[…]-3′ (SEQ ID NO:13). For HBD-2, the forward primer was-5′-[…]-3′ (SEQ ID NO:14), the reverse primer-5′-[…]-3′ (SEQ ID NO:15), and the probe was-5′-[…]-3′ (SEQ ID NO:16). Both probes contain a fluorescent reporter (6-Carboxyfluorescein [FAM]) at the 5′ end and a fluorescent quencher (6-Carboxytetramethylrhodamine [TAMRA]) at the 3′ end. As an internal control for normalization, human GAPDH real-time quantitative PCR was conducted in every reaction. The primers and probes were purchased from Roche Molecular Diagnostic Systems. The PCR fragments were amplified for 40 cycles (15 sec at 95° C. and 1 min at 60° C.). […]
# human airway epithelia [2] = assay: Endotoxin responsiveness of primary human airway epithelia (HBD-2 mRNA real time PCR, NF-κB-luciferase); type: cell-based; settings: IL-1β 100 ng/ml, 24 hr, real time PCR
# Description: FIG. 6 depicts endotoxin responsiveness of well-differentiated primary cultures of human airway epithelia. Polarized epithelia were treated with NTHi LOS (100 ng/ml), sCD14 (100 ng/ml) and LBP (250 ng/ml) by apical application in a 50 μl volume. Twenty-four hours later, epithelia were harvested and analyzed for HBD-2 mRNA expression by real time PCR. As depicted in FIG. 6A, apical stimulation of airway epithelia with NTHi LOS induced little change in HBD-2 MRNA expression (2 epithelia/trial, n=3 different donors, * indicates p<0.05). In contrast, IL-1β markedly induces HBD-2 mRNA. FIG. 6B depicts the polarity of epithelial responses to IL-1β and NTHi LOS. […]
# FIG. 9 depicts the effects of MD-2 complementation on endotoxin responsiveness in human airway epithelia. […] Fold increase in HBD-2 mRNA expression were quantified by real time PCR. […] NF-κB-luciferase activity was measured 24 hr following endotoxin treatment (n=5 epithelia/condition, * indicates p<0.05). […] 24 hr after endotoxin treatment, HBD-2 expression was quantified by real time PCR. […]
# Well differentiated human airway epithelia were treated with N. meningitidis LOS-sCD14 (5 ng LOS/ml), with or without the addition of cell culture supernatants containing rMD-2. […] HBD-2 expression was quantified by real time PCR. […]
# Real-time PCR was employed to detect human β-defensin-2 and MD-2 and to quantify changes in expression. […]
# TLR4 = target: T1, TLR4 (Homo sapiens, UniProt O00206+Q9Y6Y9); assay: HEK cell activation assay: extracellular IL-8 by ELISA; type: cell-based
# T1 construct: host or cells: HEK293 stably transfected with TLR4 (HEK/TLR4)
# T1 sequence (O00206 24-839): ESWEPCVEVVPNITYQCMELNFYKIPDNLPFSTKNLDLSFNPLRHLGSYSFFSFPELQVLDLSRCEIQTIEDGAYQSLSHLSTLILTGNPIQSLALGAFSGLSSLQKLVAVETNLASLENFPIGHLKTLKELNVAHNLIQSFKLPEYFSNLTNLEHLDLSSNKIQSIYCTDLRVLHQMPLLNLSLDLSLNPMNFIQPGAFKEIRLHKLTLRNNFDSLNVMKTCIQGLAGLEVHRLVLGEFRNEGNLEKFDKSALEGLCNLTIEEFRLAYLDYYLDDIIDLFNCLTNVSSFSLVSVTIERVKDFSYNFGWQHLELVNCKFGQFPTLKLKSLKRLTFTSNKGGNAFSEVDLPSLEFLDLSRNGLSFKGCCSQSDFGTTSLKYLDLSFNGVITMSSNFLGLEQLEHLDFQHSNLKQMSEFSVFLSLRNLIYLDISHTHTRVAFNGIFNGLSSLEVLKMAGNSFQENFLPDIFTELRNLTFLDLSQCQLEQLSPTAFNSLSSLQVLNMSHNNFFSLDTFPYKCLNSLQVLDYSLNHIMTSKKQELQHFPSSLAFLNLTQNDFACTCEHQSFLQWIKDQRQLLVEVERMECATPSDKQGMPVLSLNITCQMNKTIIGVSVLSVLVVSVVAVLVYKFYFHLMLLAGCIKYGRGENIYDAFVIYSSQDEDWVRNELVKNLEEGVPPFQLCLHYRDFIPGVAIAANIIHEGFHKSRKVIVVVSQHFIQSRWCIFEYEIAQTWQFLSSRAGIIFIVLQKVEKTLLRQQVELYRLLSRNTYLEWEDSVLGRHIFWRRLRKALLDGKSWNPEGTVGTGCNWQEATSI
# T1 sequence (Q9Y6Y9 19-160): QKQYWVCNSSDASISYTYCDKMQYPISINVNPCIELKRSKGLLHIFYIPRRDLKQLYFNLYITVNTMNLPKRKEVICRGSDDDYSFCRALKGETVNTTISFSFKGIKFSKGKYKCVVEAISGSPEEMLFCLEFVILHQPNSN
# Text: Conditioned insect cell culture medium containing soluble, polyhistidine-tagged recombinant wild-type (wt) or C95Y mutant MD-2 were generated according to the method of Viriyakosol et al. (2001). A human embryonic kidney cell line (HEK293) that stably expresses TLR4 (HEK/TLR4), but lacks both CD14 and MD-2 (Yang et al., 2000), was used to evaluate the effect of MD-2 on the ability of lipooligosaccharide (LOS) to interact with TLR4 and promote activation.
# FIG. 1 depicts the expression and bioactivity of recombinant MD-2-His6. FIGS. 1A and 1B depict SDS-PAGE immunoblots of control culture medium (FIG. 1A, lane 1) or medium from HiFive cells infected with recombinant baculovirus encoding wt (FIG. 1A, lane 2; FIG. 1B, lanes 1–3) or C95Y MD-2 (FIG. 1B, lane 4). MD-2 was detected using anti-(His)4 antibody. All samples represent 1 μl of culture medium except B, lanes 2 and 3, which represent 0.3 and 0.1 μl and A, lane 3, which represents molecular weight markers. In FIG. 1C, HEK/TLR4 cells were incubated in HEPES-buffered HBSS+/0.1% albumin with [^14C]-LOSagg (3 ng/ml)+/−LBP (30 ng/ml) and/or (60 μl) culture medium containing wt MD-2 (MD-2) (open bars); LOSagg+LBP and sCD14 (250 ng/ml)+/−wt (closed bars) or C95Y “MD-2” (striped bars), or [^14C]-LOS-sCD14 (2 ng LOS/ml)+/−wt or C95Y “MD-2” (closed bars). After overnight incubation, extracellular IL-8 was assayed by ELISA. In FIG. 1D, HEK/TLR4 cells were incubated with increasing amounts of wt (▪) or C95Y (◯) MD-2+[^14C]-LOS-sCD14 (2 ng/ml) and cell activation measured. Results shown are from one experiment (duplicate samples) representative of four independent experiments.
# In FIG. 2, a bioactive complex (Mr˜25,000) containing MD-2 and [^14C]-LOS is formed by incubation of [^14C]-LOS-sCD14 with wt, but not C95Y, MD-2. In FIG. 2A, dialyzed control insect cell medium (◯) or medium containing wt (♦) or C95Y ( ? ) MD-2 was incubated for 30 min, 37° C. with (1:1 vol/vol) [^14C]-LOS-sCD14 in HBSS+, 10 mM HEPES and chromatographed on Sephacryl S100. Column fractions were analyzed for [^14C]-LOS. Identical results were obtained in analytical (5 ng [^14C]-LOS/ml+200 μl culture medium) or more preparative runs (reagents concentrated 20×). In FIG. 2B, peak fractions (Mr˜25,000) from treatment of [^14C]-LOS-sCD14 with wt MD-2 (FIG. 2A) were re-chromatographed on S100 in HBSS+, 10 mM HEPES without HSA; recovery of [^14C]-LOS was >80%. In FIG. 2C, HEK (□) or HEK/TLR4 (▪) were incubated overnight with the indicated amounts of LOS added as purified Mr˜25,000 (LOS-MD-2) complex. Cell activation was measured by IL-8 accumulation. Results shown correspond to one experiment, in duplicate, representative of three similar experiments. FIGS. 2D and 2E depict adsorption and elution of bioactive Mr˜25,000 complex to HisBind resin. Peak fractions of the purified complex (FIG. 2B; 10 ng [^14C]-LOS) were dialyzed against PBS and incubated with HisBind resin (0.125 ml) for 1 hr at 25° C. and processed as described in Methods. Non-adsorbed (Flow-thru) and adsorbed material eluted with 200 mM imidazole were precipitated with trichloroacetic acid to concentrate sample for SDS-PAGE/immunoblot analysis. […]
# Purified [^14C]-LOSagg or [^14C]-LOS-sCD14 (3 ng LOS/ml)+/−indicated proteins (30 ng/ml LBP, 250 ng/ml sCD14, 60 μl culture medium) were incubated at 37° C. for 30 min. After this incubation, samples were analyzed by gel filtration chromatography to monitor formation of [^14C]-LOS-MD-2 and by incubation with HEK/TLR4 cells to measure cell activation. […]
# MD-2 = assay: Formation of [^14C]-LOS-MD-2 complex monitored by gel filtration chromatography; type: binding, human; settings: 30 min, 37° C., Sephacryl S100
# Description: In FIG. 2, a bioactive complex (Mr˜25,000) containing MD-2 and [^14C]-LOS is formed by incubation of [^14C]-LOS-sCD14 with wt, but not C95Y, MD-2. In FIG. 2A, dialyzed control insect cell medium (◯) or medium containing wt (♦) or C95Y ( ? ) MD-2 was incubated for 30 min, 37° C. with (1:1 vol/vol) [^14C]-LOS-sCD14 in HBSS+, 10 mM HEPES and chromatographed on Sephacryl S100. Column fractions were analyzed for [^14C]-LOS. Identical results were obtained in analytical (5 ng [^14C]-LOS/ml+200 μl culture medium) or more preparative runs (reagents concentrated 20×). […] Cell activation was measured by IL-8 accumulation. […]
# Purified [^14C]-LOSagg or [^14C]-LOS-sCD14 (3 ng LOS/ml)+/−indicated proteins (30 ng/ml LBP, 250 ng/ml sCD14, 60 μl culture medium) were incubated at 37° C. for 30 min. After this incubation, samples were analyzed by gel filtration chromatography to monitor formation of [^14C]-LOS-MD-2 and by incubation with HEK/TLR4 cells to measure cell activation.
# Columns of Sephacryl HR S200 (1.6 cm×30 cm) or S100 (1.0 cm×60 cm) were pre-equilibrated in 10 mM HEPES, HBSS^++/−0.1% HSA. […] Aliquots of the collected fractions were analyzed by liquid scintillation spectroscopy using a Beckman LS liquid scintillation counter to detect [^14C]-LOS. […]
molecule,measurement,setting,value
"CCCCCCCCCCCCCC(=O)O[C@@H]1[C@@H](C)[C@@]2(O)[C@@H](C=C(CO)C[C@]3(O)C(=O)C(C)=C[C@@H]23)[C@@H]2C(C)(C)[C@]12OC(C)=O [phorbol myristate acetate, reference compound]",steady state MD-2 mRNA levels,human airway epithelia [1],induced
"IL-1β: human recombinant IL-1β, positive control [reference compound]",increase in HBD-2 expression,human airway epithelia [2],"> 10,000 fold"
"P6: outer membrane protein P6 from non-typeable Haemophilus influenzae (protein, UniProt P10324 20-153, looked up) Peptidoglycan-associated …: CSSSNNDAAGNGAAQTFGGYSVADLQQRYNTVYFGFDKYDITGEYVQILDAHAAYLNATPAAKVLVEGNTDERGTPEYNIALGQRRADAVKGYLAGKGVDAGKLGTVSYGEEKPAVLGHDEAAYSKNRRAVLAY",steady state MD-2 mRNA levels,human airway epithelia [1],marked increases
C95Y MD-2 (protein) QKQYWVCNSSDASISYTYCDKMQYPISINVNPCIELKRSKGLLHIFYIPRRDLKQLYFNLYITVNTMNLPKRKEVIYRGSDDDYSFCRALKGETVNTTISFSFKGIKFSKGKYKCVVEAISGSPEEMLFCLEFVILHQPNSNHHHHHH,activation of HEK/TLR4 cells by LOS-sCD14 (or LOSagg+LBP+sCD14) on addition of medium containing MD-2,"TLR4; IL-8 release, LOS-sCD14 2 ng LOS/ml",not seen
same,inhibition of activation of HEK/TLR4 by [^14C]-LOS-MD-2 by added MD-2,"TLR4; [^14C]-LOS-MD-2 0.3 ng/ml, increasing amounts of conditioned medium",intermediate inhibitory effect
same,"reaction with [^14C]-LOS-sCD14 to generate new Mr˜25,000 [^14C]-LOS-containing complex",MD-2,no change

# Source: patent publication US7164008B2, “Isolated complexes of endotoxin and MD-2” (priority 2003, dated 2007)
